Measurements published in article PMC10127133, “Structural insights into a cooperative switch between one and two FimH bacterial adhesins binding pauci- and high-mannose type N-glycan receptors” (The Journal of Biological Chemistry, 2023).

B1: omega-1 (ω1) glycoprotein carrying Man3Gn2 (natural protein)
chain: QNRWDYYVFSVTWPPTYCESIQCRLPRGLRDFTIHGLWPTIFPNRQPNCTGSLRFDIRRLQGIRNELDLMWPHLKNYRESPSFWKHEFEKHGLCAVEDPQVFNQYGYFKFGIKLMQKLNLLKTLMKYKISPHDSRQYDTINLMNVLEREFGYNGSANCIRKPGRRGMYHLEEVHVCLNRKHEFMNCPFLGNCPKKFIFPPFQ
modifications: N-glycans Man3Gn2 (oligomannose-3, paucimannosidic); sites not stated
B2: omega-1 (ω1) glycoprotein carrying X1Man3Gn2F1[3] (natural protein)
chain: QNRWDYYVFSVTWPPTYCESIQCRLPRGLRDFTIHGLWPTIFPNRQPNCTGSLRFDIRRLQGIRNELDLMWPHLKNYRESPSFWKHEFEKHGLCAVEDPQVFNQYGYFKFGIKLMQKLNLLKTLMKYKISPHDSRQYDTINLMNVLEREFGYNGSANCIRKPGRRGMYHLEEVHVCLNRKHEFMNCPFLGNCPKKFIFPPFQ
modifications: N-glycans X1Man3Gn2F1[3] (oligomannose-3 with β1,2-xylose on mannose 3 and α1,3 core fucose); sites not stated
B3: omega-1 (ω1) glycoprotein carrying Man3Gn2F1[3] (natural protein)
chain: QNRWDYYVFSVTWPPTYCESIQCRLPRGLRDFTIHGLWPTIFPNRQPNCTGSLRFDIRRLQGIRNELDLMWPHLKNYRESPSFWKHEFEKHGLCAVEDPQVFNQYGYFKFGIKLMQKLNLLKTLMKYKISPHDSRQYDTINLMNVLEREFGYNGSANCIRKPGRRGMYHLEEVHVCLNRKHEFMNCPFLGNCPKKFIFPPFQ
modifications: N-glycans Man3Gn2F1[3] (α1,3 core-fucosylated oligomannose-3); sites not stated
B4: omega-1 (ω1) glycoprotein carrying Man3Gn2F1[6] (natural protein)
chain: QNRWDYYVFSVTWPPTYCESIQCRLPRGLRDFTIHGLWPTIFPNRQPNCTGSLRFDIRRLQGIRNELDLMWPHLKNYRESPSFWKHEFEKHGLCAVEDPQVFNQYGYFKFGIKLMQKLNLLKTLMKYKISPHDSRQYDTINLMNVLEREFGYNGSANCIRKPGRRGMYHLEEVHVCLNRKHEFMNCPFLGNCPKKFIFPPFQ
modifications: N-glycans Man3Gn2F1[6] (α1,6 core-fucosylated oligomannose-3); sites not stated

Each binder was assayed against T1, FimH lectin domain (residues Phe1-Thr158) (Escherichia coli, UniProt P08191 22-179) (assay: SPR; single-cycle kinetics on BIAcore T200; ω1-glycoprotein immobilised on a CM5 chip via primary amino groups (EDC/NHS); FimH as analyte at 14.4, 7.17, 3.60, 1.80, 0.9 μM; 20 mM Hepes, 150 mM NaCl, 0.005% Tween; 30 μl/min; 298 K; fit to the Langmuir 1:1 model). Details: both partners purified.
T1 construct: FimH type-1 fimbrial adhesin of Escherichia coli, lectin domain, residues Phe1-Thr158; No tag is mentioned; also called FimH adhesin; source: E. coli C43(DE3), pET24a vector, purified (sulfopropyl fast flow cation exchange chromatography)
T1 sequence (P08191 22-179): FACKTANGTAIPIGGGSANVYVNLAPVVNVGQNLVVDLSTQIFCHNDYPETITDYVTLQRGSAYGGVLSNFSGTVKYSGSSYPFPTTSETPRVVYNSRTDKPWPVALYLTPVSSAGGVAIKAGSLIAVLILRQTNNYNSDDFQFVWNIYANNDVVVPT
In the case of B1, the Kd is reported as 33.6 nM, the koff is reported as 0.00013 s⁻¹ and the kon is reported as 3890 M⁻¹ s⁻¹. B2 showed a Kd of 6000 nM, a koff of 0.0015 s⁻¹ and a kon of 257 M⁻¹ s⁻¹. For B3, the Kd was 128 nM, the koff was 6.72e-05 s⁻¹ and the kon was 525 M⁻¹ s⁻¹. Binder B4 has a Kd of 134 nM, a koff of 8.89e-05 s⁻¹ and a kon of 663 M⁻¹ s⁻¹.
